Three molecules from publication PMC10613289, “A circular RNA activated by TGFβ promotes tumor metastasis through enhancing IGF2BP3-mediated PDPN mRNA stability” can be followed below.

Series [1] addresses T1, IGF2BP3 (recombinant GST fusion) (UniProt O00425 1-579). The experiment in a line: pull-down; EMSA: 10 mM HEPES pH 7.3, 20 mM KCl, 1 mM MgCl2, 1 mM DTT; competition: 150 mM NaCl, 20 mM Tris-HCl pH 7.5, 1.5 mM MgCl2, 1 mM DTT, 10% glycerol, 4 °C; pull-down at 4 °C, wash 20 mM Tris-HCl pH 7.5, 1 mM EDTA, 450 mM NaCl. Conditions: protein: recombinant; tags: GST (pGEX-6P-1); label: 3' biotin. On the technique in general: A gel shift assay detects complexes by their altered migration in electrophoresis.

Series [2] addresses T1, IGF2BP3 (recombinant GST fusion). The experiment in a line: competition; against biotin-circITGB6 (1 uM), protein 1 uM; EMSA: 10 mM HEPES pH 7.3, 20 mM KCl, 1 mM MgCl2, 1 mM DTT; competition: 150 mM NaCl, 20 mM Tris-HCl pH 7.5, 1.5 mM MgCl2, 1 mM DTT, 10% glycerol, 4 °C; pull-down at 4 °C, wash 20 mM Tris-HCl pH 7.5, 1 mM EDTA, 450 mM NaCl. Conditions: tags: GST (pGEX-6P-1).

For series [3] the target is unchanged. The experiment in a line: competition; displaces biotin-circITGB6 (1 uM), protein 1 uM; EMSA: 10 mM HEPES pH 7.3, 20 mM KCl, 1 mM MgCl2, 1 mM DTT; competition: 150 mM NaCl, 20 mM Tris-HCl pH 7.5, 1.5 mM MgCl2, 1 mM DTT, 10% glycerol, 4 °C; pull-down at 4 °C, wash 20 mM Tris-HCl pH 7.5, 1 mM EDTA, 450 mM NaCl. Conditions: tags: GST (pGEX-6P-1).

T1 sequence (O00425 whole entry, the tested form may be a part): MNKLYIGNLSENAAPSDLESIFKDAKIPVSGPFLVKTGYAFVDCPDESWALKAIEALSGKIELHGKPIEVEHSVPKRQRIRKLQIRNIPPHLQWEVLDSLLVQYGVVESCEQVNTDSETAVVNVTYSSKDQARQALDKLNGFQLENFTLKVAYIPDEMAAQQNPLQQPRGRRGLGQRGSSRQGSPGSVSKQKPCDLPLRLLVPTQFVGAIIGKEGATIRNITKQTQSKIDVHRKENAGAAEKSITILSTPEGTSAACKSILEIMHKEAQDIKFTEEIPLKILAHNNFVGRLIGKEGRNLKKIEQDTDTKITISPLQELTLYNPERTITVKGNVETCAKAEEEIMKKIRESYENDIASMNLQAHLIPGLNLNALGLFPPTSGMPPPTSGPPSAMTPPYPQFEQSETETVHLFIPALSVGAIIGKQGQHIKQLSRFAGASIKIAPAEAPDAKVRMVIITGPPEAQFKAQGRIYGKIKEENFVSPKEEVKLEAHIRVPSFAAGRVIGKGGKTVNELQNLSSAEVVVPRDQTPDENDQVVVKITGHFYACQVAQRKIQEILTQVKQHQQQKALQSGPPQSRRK

B1: M1 (M1-WT) probe (ssRNA)
RNA: ACUCUAAACGGAGCUGCAUUGAGUGCCACC
Consider B1, for which the binding result in series [1] is recorded as “binds”.

B2: M2 competitor, unlabeled (ssRNA)
RNA: ACUAGCUGGUGCGACCAUCAGUGAAGAAGA
Take B2: the binding result in series [2] is listed as “no binding”.

B3: M1 competitor, unlabeled (ssRNA)
RNA: B1 RNA
B3: the binding result in series [3] is “binds”.
